The values below come from the supplement of paper PMC11780869.

The series deals with Bacillus subtilis. Nature of the series: cleaved RNA product abundance (RNA/gDNA barcode ratio) relative to median wild-type variant (ratio to wild type); higher = more accumulation of the downstream cleavage product. The method in brief: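 Truncated aprE or tetM reporter mRNAs with barcoded RNase Y cleavage-site windows, mutagenized from oligos at a 9% error rate, sat in the B. subtilis chromosome. Cells grew in LB at 37°C from OD600 0.0003 to 0.3. Gel-selected cleaved RNA was reverse transcribed and its barcodes sequenced with those from genomic DNA, collapsing by UMI. Cleaved product abundance equals the RNA:gDNA barcode ratio per construct over the median construct with the unmutated site.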

Where [1] appears, read: experiment (reporter, strain, medium): exp 2b: truncated aprE reporter, strain BJT200, cleavage site: cggR-gapA (positions -7 to +36 mutated).
[2] abbreviates: experiment (reporter, strain, medium): exp 4a: truncated aprE reporter, strain BJT201 with 2% xylose (RNase J1 expressed), cleavage site: cggR-gapA (positions -7 to +36 mutated).
Setting [3] is: experiment (reporter, strain, medium): exp 8a: truncated aprE reporter, strain BJT201 with 2% xylose (RNase J1 expressed), cleavage site: glnRA (positions -5 to +31 mutated).
Setting [4] is: experiment (reporter, strain, medium): exp 6: tetM reporter, strain 168, cleavage site: cggR-gapA (positions -7 to +36 mutated).

As to “ACAGACGAAGGAGCCGCACAGAAGTTATTAAGGGATGAATAATCCCTCAACATAAATATCTCTCACTTATTTAAA”, the “cleaved RNA product abundance” value by setting is: under setting [1], 0.198; under setting [2], 0.294.
On to “ACAGACGAAGGAGCCGCAAAGAAGTTATTAAGGTAAGAATAATCCCTCAATATAAATATCTCTCACTTATTTAAA”, for which, under setting [2], the “cleaved RNA product abundance” value came to 0.0843.
Consider “ACAGACGAAGGAGCCGCAAAGAAGTTGTTAAGTGATGAATAATCCCTCAATATAAATATCTCTCACTTATTTAAA”, for which, under setting [2], the “cleaved RNA product abundance” value is 0.0952.
Regarding “CGACATGTCCCGCTTCTTTCATTAATCCGTTTGCAATTGTTTTGCTATATACATTTACCTTTTAAGAGGAGGAAT”, the “cleaved RNA product abundance” value under setting [3] amounted to 0.536.
Turning to “ACAGACGAAGGAGCCGCAAAGAAGTTATTAAGGGATGAATAATACCTCAATATACATATCTCTCACTTATTTAAA”, the “cleaved RNA product abundance” value under setting [2] was 0.123.
Regarding “ACAGACGAAGGAGCCGCAAAGAAGTTATTAAGAGATGAATAATCCCTGAATATAAATATCTCTCACTTATTTAAA”, the “cleaved RNA product abundance” value under setting [2] was determined as 0.0805.
On the same count and under the same terms, as for “ACAGACGAAGGAGCCGCAAAGAAGTTATAAAGGGGTGAATAATCCCTCAATATAAATATCTCTCACTTATTTAAA”, the figure is 0.422; as for “ACAGACGAAGGAGCCGCAAAGAAGTTATTAAGAGAAGAATAAACCCTCAATATAAATATCTCTCACTTATTTAAA”, 0.0499.
With “ACAGACGAAGGAGCCGCAAATAAGTTATTAAGGGATGAATAATCCCTCTATATAAATATCTCTCACTTATTTAAA”, the “cleaved RNA product abundance” value by setting is: under setting [1], 0.34; under setting [2], 0.439.
Take “ACAGACGAAGGAGCCGCAAAGAACTTATTACGGGATGAATAATCCCTCAATATAAATATCTCTCACTTATTTAAA”: the “cleaved RNA product abundance” value under setting [2] was 0.248.
Regarding “ACAGACGAAGGAGCCGCAAAGAAGTTATTACGGCATGAATAATCCCTCAATATAAATATCTCTCACTTATTTAAA”, the “cleaved RNA product abundance” value is, setting by setting: under setting [1], 0.0982; under setting [2], 0.204.
For the sequence “CGACATGTCCCGCTTCTTTCATTAATCCATTAGCAACTGTTTTGCTATATACATTTATCTTTTAAGAGGAGGAAT”, the “cleaved RNA product abundance” value under setting [3] came to 0.777.
Regarding “CGACATGTCCCGCTTCTTTCATTAATCCGTTCGCAACTGTTTTGCTATATACATTTACCTTTTAAGAGGAGGAAT”, under setting [3], the “cleaved RNA product abundance” value turned out to be 0.345.
“ACAGACGAAGGAGCCGCAAAGAAGTTATTAAGGGATGAAGAATCCCTCAATATCAATATCTCTCACTTATTTAAA”: the “cleaved RNA product abundance” value under setting [2] amounted to 0.0586.
Consider “ACAGACGAAGGAGCCGCAAAGAAGTTCTTAAGGGATTAATAATCCCTCAATATAAATATCTCTCACTTATTTAAA”, for which, under setting [2], the “cleaved RNA product abundance” value was found to be 0.301.
For “CGACATGTCCCGCTTCTTTCATTAATCCTTTAGCAACTGTTATGCTATATACATTTACCTTTTAAGAGGAGGAAT”, the “cleaved RNA product abundance” value under setting [3] was 0.471.
As for “CGACATGTCCCGCTTCTTTCATTAACCCGTAAGCAACTGTTTTGCTATATACATTTACCTTTTAAGAGGAGGAAT”, the “cleaved RNA product abundance” value under setting [3] came to 0.312.
On the same count and under the same terms, as for “CGACATGTCCCGCTTCTTTCATTAATCCGTTAGCAAGTGTTTTGCTATAAACATTTACCTTTTAAGAGGAGGAAT”, the figure is 0.659.
Take “ACAGACGAAGGAGCCGCCAAGAAGTTATTAAGTGATGAATAATCCCTCAATATAAATATCTCTCACTTATTTAAA”: the “cleaved RNA product abundance” value under setting [2] turned out to be 0.146.
“CGACATGTCCCGCTTCTTTCATTATTCCATTAGCAATTGTTTTGCTATATACATTTACCTTTTAAGAGGAGGAAT”: the “cleaved RNA product abundance” value under setting [3] was 1.33.
With “ACAGACGAAGGAGCCGCAAAGAAGTTATTAAGGGATGAATACTCCTTCAATATAAATATCTCTCACTTATTTAAA”, the “cleaved RNA product abundance” value under setting [2] worked out at 0.253.
As for “ACAGACGAAGGAGCCGCAAAGAAGTTATTAAGGGATGAATAATCCCTCAAAATAAATATTTCTCACTTATTTAAA”, the “cleaved RNA product abundance” value under setting [2] stood at 0.319.
“ACAGACGAAGGAGCCGCAAAGGAGTTATTAAGGGATGAATAATTCCTCAATATAAATATCTCTCACTTATTTAAA”: the “cleaved RNA product abundance” value under setting [1] was found to be 0.328.
For “ACAGACGAAGGAGCCGCAAAGAAGTTATTAAGGGATGACTAATCCCACAATATAAATATCTCTCACTTATTTAAA”, the “cleaved RNA product abundance” value runs as follows: under setting [1], 0.157; under setting [2], 0.197.
Consider “CGACATGTCCCGCTTCTTTCATTAATCCGTTAGCAACTGTTTTGCTAAATACCTTTACCTTTTAAGAGGAGGAAT”, for which, under setting [3], the “cleaved RNA product abundance” value stood at 0.165.
Consider “CGACATGTCCCGCTTCTTTCATTACTCCGTTAGCAACTGTTTTGCTGTATACATTTACCTTTTAAGAGGAGGAAT”, for which, under setting [3], the “cleaved RNA product abundance” value stood at 0.372.
Turning to “ACAGACGAAGGAGCCGCAAAGAAGTTATTAAGGGATGAATAATCGCTAAATATAAATATCTCTCACTTATTTAAA”, the “cleaved RNA product abundance” value under setting [1] was 0.0982.
Consider “ACAGACGAAGGAGCCGCAAAGAAGTTATTAAGGAATGAATAATCCCTCTATATAAATATCTCTCACTTATTTAAA”, for which the “cleaved RNA product abundance” value was found to be 0.12 under setting [1] and 0.119 under setting [2].
As for “ACAGACGAAGGAGCCGCAAAGAAGATATTAAGGGATGAATAATCCCTCAAAATAAATATCTCTCACTTATTTAAA”, the “cleaved RNA product abundance” value is, setting by setting: under setting [1], 0.15; under setting [2], 0.205.
The corresponding values for “ACAGACGAAGGAGCCGCAAAGAAGTTATTAAGGGATGAATAATCCGTCGATATAAATATCTCTCACTTATTTAAA” are 0.0608 and 0.106.
Consider “CGACATGTCCCGCTTCTTTCATTAATCTGTTAGCAACTGTTTTGCTATATAAATTTACCTTTTAAGAGGAGGAAT”, for which the “cleaved RNA product abundance” value under setting [3] is 0.994.
Regarding “CGACATGTCCCGCTTCTTTCATTAATCCGTTAGCAACTGTATTCCTATATACATTTACCTTTTAAGAGGAGGAAT”, under setting [3], the “cleaved RNA product abundance” value was 0.45.
As to “ACAGACGAAGGAGCCGCAAAGAAGTTATTAAGGGATGAATCATGCCTCAATATAAATATCTCTCACTTATTTAAA”, the “cleaved RNA product abundance” value was determined as 0.164 under setting [1] and 0.251 under setting [2].
Regarding “ACAGACGAAGGAGCCGCAAAGAAATTATTAAGGAATGAATAATCCTTCAATATAAATATCTCTCACTTATTTAAA”, the “cleaved RNA product abundance” value under setting [2] is 0.153.
Take “ACAGACGAAGGAGCCGCAAAGAAGTTATTAAGGGATGAATATTCCCTCAATATAAATATCTCTCACTTATTTAAA”: the “cleaved RNA product abundance” value came to 0.675 under setting [1], 0.699 under setting [2] and 0.84 under setting [4].
As to “CGACATGTCCCGCTTCTTTCATTAATCCGTTAGCAACTGTTTGGCTATATACATTTACGTTTTAAGAGGAGGAAT”, under setting [3], the “cleaved RNA product abundance” value turned out to be 0.403.
Regarding “ACAGACGAAGGAGCCGCGAAGAAGTTATTAAGGGATGAATAATCCCTCAAAATAAATATCTCTCACTTATTTAAA”, under setting [2], the “cleaved RNA product abundance” value came to 0.319.
As to “ACAGACGAAGGAGCCGCAAAGAAGTGATGAAGGGATGAATAATCCCTCAATATAAATATCTCTCACTTATTTAAA”, under setting [1], the “cleaved RNA product abundance” value was 0.446.
“ACAGACGAAGGAGCCGCAAAGAAGTTATTAAGGGATGAATTATCACTCAATATAAATATCTCTCACTTATTTAAA”: the “cleaved RNA product abundance” value under setting [2] worked out at 0.178.
The same measure, in the same setting: in the case of “ACAGACGAAGGAGCCGCAAATAAATTATTAAGGGATGAATAATCCCTCAACATAAATATCTCTCACTTATTTAAA” it was 0.396.
As to “ACAGACGAAGGAGCCGCAAAGAAAATATTAAGGGATGAATAATCCCTCAATATAAATATCTCTCACTTATTTAAA”, the “cleaved RNA product abundance” value under setting [2] was determined as 0.697.
Take “ACAGACGAAGGAGCCGCAAAGAAGTTTTTAAGGGATGAATAATCCCTCACTATAAATATCTCTCACTTATTTAAA”: under setting [2], the “cleaved RNA product abundance” value came to 0.267.
As for “ACAGACGAAGGAGCCGCAAAGAAGTTATTAAGGTATGAATAATCCCTCTATATAAATATCTCTCACTTATTTAAA”, the “cleaved RNA product abundance” value was 0.0999 under setting [1] and 0.11 under setting [2].
As to “CGACATGTCCCGCTTCTTTCATTATTCCGTTAGCAACTGTTTTGCTATATACACTTACCTTTTAAGAGGAGGAAT”, the “cleaved RNA product abundance” value under setting [3] was determined as 1.07.
For the sequence “CGACATGTCCCGCTTCTTTCATTAATCCATTAGCCACTGTTTTGCTATATACATTTACCTTTTAAGAGGAGGAAT”, the “cleaved RNA product abundance” value under setting [3] worked out at 0.271.
“CGACATGTCCCGCTTCTTTCATTAATCCGTTAGCAACTGTTTTGCAATATACATTTACCATTTAAGAGGAGGAAT”: the “cleaved RNA product abundance” value under setting [3] turned out to be 0.562.
Take “ACAGACGAAGGAGCCGCAAAGAAATTATTAAGGGATGAATAATCCGTCAATATAAATATCTCTCACTTATTTAAA”: the “cleaved RNA product abundance” value by setting is: under setting [1], 0.192; under setting [2], 0.261.
On to “CGACATGTCCCGCTTCTTTCATTAATCCGTAAGCAACAGTTTTGCTATATACATTTACCTTTTAAGAGGAGGAAT”, for which the “cleaved RNA product abundance” value under setting [3] came to 0.348.
On to “ACAGACGAAGGAGCCGCAAAGAAGTTATAAAAGGATAAATAATCCCTCAATATAAATATCTCTCACTTATTTAAA”, for which, under setting [1], the “cleaved RNA product abundance” value was 0.141.
Same read-out and setting: in the case of “ACAGACGAAGGAGCCGCAAAGAAGATACTAAGGGATGAATAATCCCTCAATATAAATATCTCTCACTTATTTAAA” it was 0.0772.
Take “ACAGACGAAGGAGCCGCAAAGAAGTTATTAAGGGATGAATATTCCCTCATTATAAATATCTCTCACTTATTTAAA”: the “cleaved RNA product abundance” value under setting [2] stood at 0.316.
Take “ACAGACGAAGGAGCCGCAAAGAAGTTATTAAGGGATGATTAATCCCTCAATATAAATATCTCTCACTTATTTAAA”: the “cleaved RNA product abundance” value runs as follows: under setting [1], 0.75; under setting [2], 0.844; under setting [4], 0.94.
Consider “CGACATGTCCCGCTTCTTTCATTAATCCGTTAGCAACTATTTTGCTATAAACATTTACCTTTTAAGAGGAGGAAT”, for which the “cleaved RNA product abundance” value under setting [3] is 1.
Take “CGACATGTCCCGCTTCTTTCATTATTCCGTTAGCAACTGTTTTGCTATATACATCTACCTTTTAAGAGGAGGAAT”: the “cleaved RNA product abundance” value under setting [3] came out at 1.15.
In the case of “ACAGACGAAGGAGCCGCAAAGAAGTTATTAAGGGATGCATAATTCCTCAATATAAATATCTCTCACTTATTTAAA”, under setting [2], the “cleaved RNA product abundance” value was determined as 0.559.
